Experimental data: patent US6528620B1, “Sid-polyamide fusions: a potent method of regulating gene expression” (University of Utah Research Foundation, priority 1999, dated 2003)
Blank lines part the entries; values can stand above or below the molecule they belong to. Where no end group is shown, it is not given here.

Columns and labels:
[1] = molecular target: VP16PAH2 (amino acids 251-404 of mSin3A encoding the PAH2 domain fused to the VP16 activation domain) (UniProt Q60520); assay: directed yeast two-hybrid assay (LexA-SID with VP16PAH2, beta-galactosidase)
PAH2 domain of mSin3A = molecular target: T1, PAH2 domain of mSin3A (Mus musculus, UniProt Q60520); assay: Directed two-hybrid assay (LexA-SID fusions with VP16PAH2, quantitative β-galactosidase); assay type: cell-based; details: for interaction with PAH2 (relative β-galactosidase activity): LexA fusion with VP16PAH2 in S. cerevisiae strain L40; for affinity for PAH2 relative to wild-type SID 8-20: fold higher
T1 construct: expressed in transfected cells; host or cells: S. cerevisiae strain L40
T1 sequence (Q60520 251-404): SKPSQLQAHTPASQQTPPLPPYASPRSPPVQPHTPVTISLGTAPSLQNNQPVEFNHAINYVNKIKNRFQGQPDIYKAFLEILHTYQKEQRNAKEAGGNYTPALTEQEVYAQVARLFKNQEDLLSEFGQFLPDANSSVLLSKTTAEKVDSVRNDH
From the text: Cloning and Interaction Assays—Fusions to the LexA DNA binding domain were made either by polymerase chain reaction amplifying SID 1-57 and SID 1-27 using pSPMad1 or pSPMad1 (L12P/A16P) (Ayer et al., Cell 80:767-776 (1995)) as template or by inserting a double-stranded oligonucleotide cassette encoding the various SID constructs between the EcoRI and BamH1 sites of pBTM116. Hollenberg et al., Mol. Cell. Biol. 15:3813-3822 (1995). Each construct was verified by sequencing. The different LexA fusion constructs and VP16PAH2 (Ayer et al., Cell 80:767-776 (1995)) were introduced into the S. cerevisiae strain L40 by lithium acetate transformation. Ausubel et al. eds., Current Protocols in Molecular Biology, John Wiley & Sons, Inc., New York (1995). Quantitative β-galactosidase assays were performed from three independent colonies in triplicate from liquid cultures. Ausubel et al. eds., Current Protocols in Molecular Biology, John Wiley & Sons, Inc., New York (1995). For each measurement the standard deviation was less than 10%.
We have used a directed two-hybrid assay to measure the relative affinity of the SID and various SID mutants for PAH2. Briefly, SID molecules based on the sequence of human Mad1 were fused to the DNA binding domain of bacterial LexA, and the PAH2 domain of mSin3A was fused to the transcriptional activation domain of VP16. Following introduction into the S. cerevisiae strain L40, relative affinity was measured by quantitative analysis of the β-galactosidase activity generated from an integrated LexA-dependent LacZ reporter gene.

[2] = Circular dichroism (CD) spectroscopy of SID peptides in TFE; assay type: physicochemical; details: for α-helical content: 50 μM peptide, 25° C.; for ability to adopt α-helical structure in TFE: increasing TFE concentrations (1, 20, 50%)
Experimental: Circular Dichroism (CD) Spectroscopy—CD samples contained 50 μM of peptide, 1×phosphate-buffered saline, and the percentage of trifluoroethanol (TFE, Sigma) indicated in FIG. 4. CD spectra were collected on an Aviv 62DS spectrophotometer from 280 to 195 nm at 25° C. using a cell with a 0.1-cm pathlength. The reported spectra are the average of 15 consecutive runs. The observed ellipticity was converted to mean residue molar ellipticity [Θ] (deg cm^2 dmol^−1) using the relationship [Θ]=Θ/(Cr 1) where Θ is the observed ellipticity, 1 is the pathlength, and Cr is the mean residue molar concentration. Fractional helicities were calculated as described using values for [Θ]^0222 and [Θ]^100222, corresponding to 0% and 100% helical content at 222 nm, of −2000 and −28,400 deg cm^2 dmol^−1, respectively. Wu et al., Biochemistry 20:5766-570 (1981).
To test directly if the SID could adopt an α-helical structure, we measured the helical content of wild-type SID and mutant SID peptides using circular dichroism (CD) spectroscopy. […] Therefore, spectra for the wild-type and mutant SID peptides were measured in the solvent TFE, which is commonly used to stabilize α-helical conformation in peptides that have an inherent helical propensity. Sonnichsen et al., Biochemistry 31 :8790-8798 (1992), Jasanoff and Fersht, Biochemistry 33:2129-2135 (1994). […] At increasing TFE concentrations, the wild-type peptide adopts an α-helical structure as indicated by the strong negative peaks at 208 and 222 nm. In 20% TFE the SID is approximately 40% α-helical. This percentage increases to approximately 60% in 50% TFE.

Molecule: LexA fused to SID 8-20 Q10R (from UniProt P0A7C2 1-202)
fold reduction of binding against wild-type SID 8-20 (relative beta-galactosidase activity) [1]: 4 fold

Molecule: LexA fused to SID 8-20 Q10A (from UniProt P0A7C2 1-202)
fold higher affinity than wild-type SID 8-20 (relative beta-galactosidase activity) [1]: 2 fold

Molecule: LexA fused to SID 8-20 D17A (from UniProt P0A7C2 1-202)
fold higher affinity than wild-type SID 8-20 (relative beta-galactosidase activity) [1]: 2 fold

Molecule: QLOR: minimal thirteen amino acid SID (8-20) with mutation at Gln-10, LexA fusion (NIRMLLEAADYLE; also: LexA fusion; UniProt Q05195 8-20, looked up, variant Q10R)
reduction of binding to PAH2 relative to wild-type SID 8-20 (PAH2 domain of mSin3A; yeast strain L40, fold reduced): 4 fold

Molecule: GGGMNIQMLLEAADYLE [wild-type SID peptide]
α-helical content ([2]; 20% TFE): approximately 40%
α-helical content ([2]; 50% TFE): approximately 60%
secondary structure ([2]; aqueous solution containing 1% TFE): lacks secondary structure
ability to adopt α-helical structure in TFE [2]: able to adopt an α-helical conformation

Molecule: LexA fused to SID 8-20 Q10A/E14A/D17A (from UniProt P0A7C2 1-202)
fold better binding than wild-type SID [1]: 2 fold

Molecule: LexA fused to SID 8-20 E14A (from UniProt P0A7C2 1-202)
fold higher affinity than wild-type SID 8-20 (relative beta-galactosidase activity) [1]: 2 fold

The next lines start with results.

interaction with PAH2 (relative β-galactosidase activity) (PAH2 domain of mSin3A): severely impaired binding
Molecule: Tyr-18: minimal SID 8-20 with Tyr-18 mutated to aspartic acid, LexA fusion (NIQMLLEAADDLE; also: LexA fusion; UniProt Q05195 8-20, looked up, variant Y18D)

affinity for PAH2 relative to wild-type SID 8-20 (PAH2 domain of mSin3A; yeast strain L40): approximately 2 fold
Molecule: D17A: minimal SID 8-20 with single mutation D17A, LexA fusion (NIQMLLEAAAYLE; also: LexA fusion; UniProt Q05195 8-20, looked up, variant D17A)

affinity for PAH2 relative to wild-type SID 8-20 (PAH2 domain of mSin3A; yeast strain L40): approximately 2 fold
Molecule: Q10A: minimal SID 8-20 with single mutation Q10A, LexA fusion (NIAMLLEAADYLE; also: LexA fusion; UniProt Q05195 8-20, looked up, variant Q10A)

affinity for PAH2 relative to wild-type SID 8-20 (PAH2 domain of mSin3A; yeast strain L40): approximately 2 fold
Molecule: E14A: minimal SID 8-20 with single mutation E14A, LexA fusion (NIQMLLAAADYLE; also: LexA fusion; UniProt Q05195 8-20, looked up, variant E14A)

interaction with PAH2 (relative β-galactosidase activity) (PAH2 domain of mSin3A): unable to interact with PAH2
interaction with PAH2 (relative β-galactosidase activity) (PAH2 domain of mSin3A; listed as L19D): fails to interact with PAH2
interaction with PAH2 (relative β-galactosidase activity) (PAH2 domain of mSin3A; listed as Leu-19): severely impaired binding
Molecule: GGGMNIQMLLEAADYDE [L19D SID, same mutation also tested as LexA-SID 8-20 fusion]
CD spectrum / helicity compared with wild-type SID ([2]; 50% TFE): nearly identical to that collected for the wild-type SID
reduction of helicity relative to wild-type ([2]; 50% TFE): ~5%
ability to adopt α-helical structure in TFE [2]: retain helical structure
ability to adopt α-helical structure in TFE ([2]; listed as L19D): retains helical structure

interaction with PAH2 (relative β-galactosidase activity) (PAH2 domain of mSin3A): fails to interact with PAH2
interaction with PAH2 (relative β-galactosidase activity) (PAH2 domain of mSin3A; listed as L12P/A16P): failed to interact with PAH2
Molecule: GGGMNIQMPLEAPDYLE [L12P/A16P SID, same mutation also tested as LexA fusion in two-hybrid]
ability to adopt α-helical structure in TFE [2]: cannot adopt an α-helical structure
ability to adopt α-helical structure in TFE ([2]; listed as L12P/A16P): remained unchanged with increasing concentrations of TFE
ability to adopt α-helical structure in TFE ([2]; listed as double proline mutant SID peptide): incapable of α-helix formation

affinity for PAH2 relative to wild-type SID 8-20 (PAH2 domain of mSin3A; yeast strain L40): two-fold
Molecule: Q10A/E14A/D17A: minimal SID 8-20 containing all three alanine mutations, LexA fusion (NIAMLLAAAAYLE; also: LexA fusion; UniProt Q05195 8-20, looked up, variant Q10A E14A D17A)

interaction with PAH2 (relative β-galactosidase activity) (PAH2 domain of mSin3A): unable to interact with PAH2
interaction with PAH2 (relative β-galactosidase activity) (PAH2 domain of mSin3A; listed as A15E): fails to interact with PAH2
interaction with PAH2 (relative β-galactosidase activity) (PAH2 domain of mSin3A; listed as Ala-15): severely impaired binding
Molecule: GGGMNIQMLLEDADYLE [A15D SID, same mutation also tested as LexA-SID 8-20 fusion]
CD spectrum / helicity compared with wild-type SID ([2]; 50% TFE): slightly less helical than the wild-type SID
reduction of helicity relative to wild-type ([2]; 50% TFE): approximately 40%
ability to adopt α-helical structure in TFE [2]: retain helical structure
ability to adopt α-helical structure in TFE ([2]; listed as A15E): retains helical structure

interaction with PAH2 (relative β-galactosidase activity) (PAH2 domain of mSin3A): necessary and sufficient for interaction
B1: NIQMLLEAADYLE (protein)
chain: MKALTARQQEVFDLIRDHISQTGMPPTRAEIAQRLGFRSPNAAEEHLKALARKGVIEIVSGASRGIRLLQEEEEGLPLVGRVAAGEPLLAQQHIEGHYQVDPSLFKPNADFLLRVSGMSMKDIGIMDGDLLAVHKTQDVRNGQVVVARIDDEVTVKRLKKQGNKVELLPENSEFKPIVVDLRQQSFTIEGLAVGVIRNGDWLNIQMLLEAADYLE

interaction with PAH2 (relative β-galactosidase activity) (PAH2 domain of mSin3A): sufficient for interaction
B2: SID 1-57: LexA DNA binding domain fused to amino acids 1-57 of Mad1 (protein)
chain: MKALTARQQEVFDLIRDHISQTGMPPTRAEIAQRLGFRSPNAAEEHLKALARKGVIEIVSGASRGIRLLQEEEEGLPLVGRVAAGEPLLAQQHIEGHYQVDPSLFKPNADFLLRVSGMSMKDIGIMDGDLLAVHKTQDVRNGQVVVARIDDEVTVKRLKKQGNKVELLPENSEFKPIVVDLRQQSFTIEGLAVGVIRNGDWLMAAAVRMNIQMLLEAADYLERREREAEHGYASMLPYNNKDRDALKRRNKSKKNNSSS
